Laboratory results: the RNAGym collection of RNA variant scans (doi:10.7554/elife.80360)

B1: HDV Ribozyme (parent)
chain: GGCCGGCAUGGUCCCAGCCUCCUCGCUGGCGCCGGCUGGGCAACAUUCCGAGGGGACCGUCCCCUCGGUAAUGGCGAAUGGGACCCA

Variants of: B1
Assay: self-cleavage, relative activity (ratio to wild type); higher = more cleavage; co-transcriptional

In order of rising self-cleavage:
1. GGCCGGGAUGGUCCCAGCCUCCUCGCUGGCGCCGGCUGGGCAACACUCCGAGGGGACCGUCCCCUCGGUAAUGGCGAAUGGGACCCA  0
2. GGCCGGCAUGGUCCCAGCCUCCUCGCUGGCGCCGGCUGGGCAACAUUCCGAGGGGACCGUCCCCUCGGUAAUGGCGAUUGGCACCCA  0.0302
3. GGCCGGCAUGGUCCCAGCCUGCUCGCUGGCGCCGGCUGGGCAACAUUCCGAGGGGACCGUCCCCUCGGUAAUGGCAAAUGGGACCCA  0.0386
4. GGCCGGCAUGGUCCCAGCCUCAUCGCAGGCGCCGGCUGGGCAACAUUCCGAGGGGACCGUCCCCUCGGUAAUGGCGAAUGGGACCCA  0.0573
5. GGCCGACAUGGUCCCAGCCUCCUCGCUGGCGCCGGCUGGGCAACAUUCCGAGGGGACCGUCCCCUCGGUAAUGGCGACUGGGACCCA  0.0615
6. GUCCGGCAUGGUCCCAGCCUCCUCGCUGUCGCCGGCUGGGCAACAUUCCGAGGGGACCGUCCCCUCGGUAAUGGCGAAUGGGACCCA  0.0712
7. GGCCGCCAUGGUCCCAGCCUCCUCGCUGGCGCCGGCUGGGCAACAUUCCGAGGGGACCGUCCCCUCGGUAAUGGCGGAUGGGACCCA  0.0791
8. GGCCGGCAUGGUCCCAGCCUGCUCGCUGGCGCGGGCUGGGCAACAUUCCGAGGGGACCGUCCCCUCGGUAAUGGCGAAUGGGACCCA  0.101
9. GGCCGGCAUGGUCCCAGCCUCCUCGCUGGCGCCGGGUGGGCAACAUUCCGAGGGGACCGUCCCCUCGGUAAUGUCGAAUGGGACCCA  0.111
10. GGCCUGCAUGGUCCCAGCCUCCUCGCUGGCGCCGGCUGGGCAACAAUCCGAGGGGACCGUCCCCUCGGUAAUGGCGAAUGGGACCCA  0.119
11. GGCCGGCAUGGUGCCAGCCUCCUCGCUGGCGCCGGCUGGGCAACAUUCCGAGGGGACCGUCCCGUCGGUAAUGGCGAAUGGGACCCA  0.138
12. GGCCGGCAUGGUACCAGCCUCCUCGCUGGCGCCGGCUGGGCAACAUUCCGAGGGGACCGUCCACUCGGUAAUGGCGAAUGGGACCCA  0.155
13. GGCCGGCAUGGUCCCAGCCUCCUCGCUUGCGCCGGCUGGGCAACAUUCCGAGGGGACCGUCCCCUCGGUAAUGGCGAGUGGGACCCA  0.158
14. GGCCGGCAUGGUCCCAGCCUCCUCGCUGGCGCCGGCUGGGCGACAUUCCGAGGGGACCGUCCCCUCGGUAAUGGCGAAUGGAACCCA  0.158
15. GGCCGGCAUGGUCCCAGCCUCCUCGCUGGCGCAGGCUGAGCAACAUUCCGAGGGGACCGUCCCCUCGGUAAUGGCGAAUGGGACCCA  0.162
16. GGUCGGCAUGGUCCCAGCCUCCUCGCUGGCUCCGGCUGGGCAACAUUCCGAGGGGACCGUCCCCUCGGUAAUGGCGAAUGGGACCCA  0.173
17. GGCCGGCAUGGUCCCAUCCUCCUCGCUGGCGCCGGCUGGGCAACAUUCCGAGGGGACCGUCCCCUCGGUAAUGGCGAAUGCGACCCA  0.197
18. GGCCGGCAUGGUCCCAGCCUCCUCGCUAGCGCCGGAUGGGCAACAUUCCGAGGGGACCGUCCCCUCGGUAAUGGCGAAUGGGACCCA  0.203
19. GGCCGGCAUGGUCCCAGCCUCCUCGCUGGCGCCCGCUGGGCAACAUUCCGAGGCGACCGUCCCCUCGGUAAUGGCGAAUGGGACCCA  0.295
20. GGCCGGCAUGGUCCCAGCCUCCUCGCUGGCGCCGGCUGGGCAACAUUCCGAGGGGACCGUCCACUCGGUAAUUGCGAAUGGGACCCA  0.3
21. GGCCGGCAUGGUCCCAGCCUCCUCGCUGGCGCCGGCUGGGCAUCAUGCCGAGGGGACCGUCCCCUCGGUAAUGGCGAAUGGGACCCA  0.361
22. GGCCGGCAUGGUCCCAGCCUCCUCGCUGGCGCCGGCUGGGCAACAUUCCGAGGGGACCGUCCCCUCGGUCAUGUCGAAUGGGACCCA  0.504
23. GGCCGGCAUGGUCCCAGCCUCCUCGCUGGCGCCGGCUGGGCAACAUUCCGAGGGUACCGUCCCCUCGGUAAUAGCGAAUGGGACCCA  0.533
24. GGCCGGCAUGGCCCCAGCCUCCUCGCUGGCGCCGGCUGGGCAACAUUUCGAGGGGACCGUCCCCUCGGUAAUGGCGAAUGGGACCCA  0.534
25. GGCCGGCAUGGUCCCAGCCUCCUCGCUGGCGCCGGCUGGGCAACAUUCCGACGCGACCGUCCCCUCGGUAAUGGCGAAUGGGACCCA  0.564
26. GGCCGGCAUGGUCCCAGCCUCCUCGCUGGCGCCGGCUGGUGAACAUUCCGAGGGGACCGUCCCCUCGGUAAUGGCGAAUGGGACCCA  0.729
27. GGCCGGCAUGGUCCCAGCCUCCUCGCUGGCGUCGGCUGGGCAACAUUCCGAGGGGACCCUCCCCUCGGUAAUGGCGAAUGGGACCCA  0.734
28. GGCCGGCAUGGUCCCAGCCUCCUCGCUGGCGCCGGCUGGGCAACAUUCCGAGGGGACCGUCCUCUCGGUAAUGGCGAAUGGGAACCA  0.76
29. GGCCGACAUGGUCCCAGCCUCCUCGCUGGCGCCGGCUGGGCAACAUUCCGUGGGGACCGUCCCCUCGGUAAUGGCGAAUGGGACCCA  0.778
30. GGCCGGCAUGGUCCCAGCCUCCUCGCAGGCGCCGGCUGGGCAACAUUCCGAGGGGACCGUCCCCUCGGUAAUGGCGAAUGGUACCCA  0.906
31. GGCCGGCAUGGUCCCAGCCUCCUCGCUGGCGCCGGCUGGGCAACAUUACGAGGGGACCGUCCCCUCGGGAAUGGCGAAUGGGACCCA  0.997
32. GGCCGGCAUGGUCCCGGCCUCCUCGCUGGCGCCGGCUGGGCAACAUUCCGAGGGGACCGUCCCCUCGGUAAUGGCUAAUGGGACCCA  1.29
